The text below walks through data of US20220177594A1.

Numbering of substitutions follows the chain as printed.

Sequences and labels used below:
B1: Mu_19F07_VH (SEQ ID NO: 47)_Y33A (antibody, V domains shown)
VH: EVKLVESEGGLVQPGSSMKLSCTASGFTFSDYAMAWVRQVPEKGLEWVANINYDGSSTYYLDSLKSRFIISRDNAKNILYLQMSSLKSEDTATYYCARGLTWDFDVWGTGTTVTVSS
VL: DIVMTQSHKFMSPSVGDRVSITCKASQDVDTAVAWYQQKPGQSPKLLIYLASTRHTGVPDRFTGSGSGTDFTLTISNVQSEDLADYFCQQYSRFPLTFGAGTKLELKR
B2: Mu_19F07_VL (SEQ ID NO: 49)_T53A (antibody, V domains shown)
VH: B1 VH with A33Y
VL: B1 VL with T53A
B3: Mu_19F07_VL (SEQ ID NO: 49)_L50A (antibody, V domains shown)
VH: B1 VH with A33Y
VL: B1 VL with L50A
B4: Mu_19F07_VL (SEQ ID NO: 49)_Q90A (antibody, V domains shown)
VH: B1 VH with A33Y
VL: B1 VL with Q90A
B5: Mu_19F07_VL (SEQ ID NO: 49)_F94A (antibody, V domains shown)
VH: B1 VH with A33Y
VL: B1 VL with F94A
B6: Mu_19F07_VL (SEQ ID NO: 49)_Q89A (antibody, V domains shown)
VH: B1 VH with A33Y
VL: B1 VL with Q89A
B7: Mu_19F07_VH (SEQ ID NO: 47)_F104A (antibody, V domains shown)
VH: B1 VH with A33Y, F104A
VL: B1 VL
B8: Mu_19F07_VH (SEQ ID NO: 47)_Y59A (antibody, V domains shown)
VH: B1 VH with A33Y, Y59A
VL: B1 VL
B9: Mu_09E09_VH (SEQ ID NO: 35)_S35A (antibody, V domains shown)
VH: DVKLVESGEGLVKPGGSLKLSCAASGFTFSSYAMAWVRQTPEKRLEWVAYISSGGDYIYYADTVKGRFTISRDNARNTLYLQMSSLKSEDTAMYYCTRDPITGTFAYWGQGTLVTVSA
VL: DLQMTQTTSSLSASLGDRVTISCRASQDINNYLNWYQQKPDGTVKLLIYYTSTLHSGVPSRFSGSGSGTDYSLTISNLEQEDIATYFCQQGNTLPWTFGGGTKLEIKR
B10: Mu_10F07_VL (SEQ ID NO: 41)_Y50A (antibody, V domains shown)
VH: B9 VH with A35S, A49T, I58F
VL: B9 VL with L2I, N30T, Y50A, Y71F, N92H, T93M
B11: Mu_09E09_VL (SEQ ID NO: 37)_N34A (antibody, V domains shown)
VH: B9 VH with A35S
VL: B9 VL with N34A
B12: Mu_10F07_VH (SEQ ID NO: 39)_I101A (antibody, V domains shown)
VH: B9 VH with A35S, A49T, I58F, I101A
VL: B9 VL with L2I, N30T, Y71F, N92H, T93M
B13: Mu_09E09_VH (SEQ ID NO: 35)_D99A (antibody, V domains shown)
VH: B9 VH with A35S, D99A
VL: B9 VL
B14: Mu_09E09_VL (SEQ ID NO: 37)_G91A (antibody, V domains shown)
VH: B9 VH with A35S
VL: B9 VL with G91A
B15: Mu_09E09_VH (SEQ ID NO: 35)_P100A (antibody, V domains shown)
VH: B9 VH with A35S, P100A
VL: B9 VL
B16: Mu_09E09_VL (SEQ ID NO: 37)_L94A (antibody, V domains shown)
VH: B9 VH with A35S
VL: B9 VL with L94A
B17: Mu_09E09_VH (SEQ ID NO: 35)_T102A (antibody, V domains shown)
VH: B9 VH with A35S, T102A
VL: B9 VL
B18: Mu_09E09_VH (SEQ ID NO: 35)_Y50A (antibody, V domains shown)
VH: B9 VH with A35S, Y50A
VL: B9 VL
B19: Mu_09E09_VH (SEQ ID NO: 35)_Y57A (antibody, V domains shown)
VH: B9 VH with A35S, Y57A
VL: B9 VL
B20: Mu_09E09_VH (SEQ ID NO: 35)_F105A (antibody, V domains shown)
VH: B9 VH with A35S, F105A
VL: B9 VL
B21: Mu_09E09_VL (SEQ ID NO: 37)_Y32A (antibody, V domains shown)
VH: B9 VH with A35S
VL: B9 VL with Y32A
B22: Mu_02D09_VH (SEQ ID NO: 31)_D99A (antibody, V domains shown)
VH: EVQLVESGGGLVKPGGSLTLSCAASGFTFSDYGMHWLRQAPEKGLEWVAYISSGSRAVFFADTVKGRFTISRDNAKNTLFLQMTSLRSDDTAMYYCARARYDGRGFAYWGQGTLVTVSA
VL: DIVLTQSPATLSVTPGDSVSLSCRASQSISNNLHWYQQTSHESPRLLITYASQSISGIPSRFSGSGSGTDFTLSINSVETEDFGMYFCQQSNSWPLTFGAGTKLELKR
B23: Mu_02D09_VL (SEQ ID NO: 33)_I29A (antibody, V domains shown)
VH: B22 VH with A99D
VL: B22 VL with I29A
B24: Mu_02D09_VL (SEQ ID NO: 33)_W94A (antibody, V domains shown)
VH: B22 VH with A99D
VL: B22 VL with W94A
B25: Mu_02D09_VH (SEQ ID NO: 31)_D102A (antibody, V domains shown)
VH: B22 VH with A99D, D102A
VL: B22 VL
B26: Mu_02D09_VL (SEQ ID NO: 33)_L96A (antibody, V domains shown)
VH: B22 VH with A99D
VL: B22 VL with L96A
B27: Mu_02D09_VH (SEQ ID NO: 31)_R104A (antibody, V domains shown)
VH: B22 VH with A99D, R104A
VL: B22 VL
B28: Mu_02D09_VH (SEQ ID NO: 31)_Y101A (antibody, V domains shown)
VH: B22 VH with A99D, Y101A
VL: B22 VL

One assay addresses Feline_OSMR_hlgG1_Fc (feline). The experiment in a line: SPR Biacore. In general terms: In SPR one partner is held on a chip, and binding of the other changes the refractive index at the surface.
Take B1: the Kd amounted to 0.407 nM, the koff stood at 0.000108 s⁻¹ and the kon is 266000 M⁻¹ s⁻¹.

B2 had a Kd of 0.00536 nM, a koff of 9.05e-07 s⁻¹ and a kon of 169000 M⁻¹ s⁻¹.

For B3, the Kd is 0.0143 nM, the koff turned out to be 5.86e-07 s⁻¹ and the kon was 41100 M⁻¹ s⁻¹.

B4 displayed a Kd of 0.00048 nM, a koff of 1.31e-07 s⁻¹ and a kon of 273000 M⁻¹ s⁻¹.

With B5, the Kd was determined as 0.0052 nM, the off-rate (koff) is 4.7e-07 s⁻¹ and the association rate constant (kon) amounted to 90400 M⁻¹ s⁻¹.

B6 had a Kd of 0.0511 nM, a koff of 2.38e-06 s⁻¹ and a kon of 46500 M⁻¹ s⁻¹.

Take B7: the kon was determined as 144000 M⁻¹ s⁻¹.

B8 showed a dissociation constant (Kd) of 0.4 nM, a koff of 0.000141 s⁻¹ and an association rate constant (kon) of 351000 M⁻¹ s⁻¹.

B9 had an equilibrium dissociation constant (Kd) of 1.37 nM, a koff of 0.00104 s⁻¹ and a kon of 756000 M⁻¹ s⁻¹.

With B10, the equilibrium dissociation constant (Kd) turned out to be 0.00714 nM, the koff is 1.73e-06 s⁻¹ and the kon amounted to 242000 M⁻¹ s⁻¹.

Take B11: the Kd amounted to 5.02 nM, the koff turned out to be 0.00161 s⁻¹ and the kon amounted to 321000 M⁻¹ s⁻¹.

For B12, the Kd was found to be 6.88 nM, the koff came out at 0.000701 s⁻¹ and the kon stood at 102000 M⁻¹ s⁻¹.

B13 returned a Kd of 1.76 nM, a koff of 0.00108 s⁻¹ and an on-rate constant (kon) of 612000 M⁻¹ s⁻¹.

B14 came in with a dissociation constant (Kd) of 2.21 nM, a koff of 0.00203 s⁻¹ and a kon of 918000 M⁻¹ s⁻¹.

In turn, B15 showed an equilibrium dissociation constant (Kd) of 1.27 nM, a koff of 0.000926 s⁻¹ and an on-rate constant (kon) of 729000 M⁻¹ s⁻¹.

As to B16, the dissociation constant (Kd) came to 0.621 nM, the off-rate (koff) worked out at 0.00167 s⁻¹ and the on-rate constant (kon) was found to be 2.68e+06 M⁻¹ s⁻¹.

Molecule B17 had a Kd of 1.94 nM, a koff of 0.00187 s⁻¹ and a kon of 964000 M⁻¹ s⁻¹.

B18 registered a Kd of 2.85 nM, an off-rate (koff) of 0.00177 s⁻¹ and an on-rate constant (kon) of 622000 M⁻¹ s⁻¹.

The molecule B19 came in with a dissociation constant (Kd) of 2.54 nM, a koff of 0.0024 s⁻¹ and a kon of 943000 M⁻¹ s⁻¹.

Take B20: the Kd stood at 2.4 nM, the koff came to 0.00186 s⁻¹ and the on-rate constant (kon) is 772000 M⁻¹ s⁻¹.

Turning to B21, the Kd is 0.632 nM, the koff was found to be 0.00158 s⁻¹ and the kon worked out at 2.51e+06 M⁻¹ s⁻¹.

As for B22, the Kd is 1.13 nM, the koff was 0.000463 s⁻¹ and the kon was 408000 M⁻¹ s⁻¹.

Consider B23, for which the Kd amounted to 7.26 nM, the dissociation rate constant (koff) came out at 0.00113 s⁻¹ and the on-rate constant (kon) was found to be 155000 M⁻¹ s⁻¹.

B24 came in with a Kd of 0.000765 nM, a koff of 7.94e-08 s⁻¹ and an association rate constant (kon) of 104000 M⁻¹ s⁻¹.

Molecule B25 yielded a Kd of 13.9 nM, a koff of 0.00174 s⁻¹ and a kon of 125000 M⁻¹ s⁻¹.

With B26, the Kd came out at 0.000648 nM, the koff came out at 2.85e-07 s⁻¹ and the kon came to 440000 M⁻¹ s⁻¹.

B27 gave an equilibrium dissociation constant (Kd) of 0.449 nM, an off-rate constant (koff) of 5.79e-05 s⁻¹ and an association rate constant (kon) of 129000 M⁻¹ s⁻¹.

B28 had an equilibrium dissociation constant (Kd) of 11.5 nM, a koff of 0.00194 s⁻¹ and a kon of 169000 M⁻¹ s⁻¹.

For the next assay, the target named is Feline_OSMR_hlgG1_Fc (feline). Briefly: indirect ELISA, fOSMR coated; OD ratio to antibody expression control.
Chain of Feline_OSMR_hlgG1_Fc (feline) (chain, as listed by the source limits assumed, form in doubt): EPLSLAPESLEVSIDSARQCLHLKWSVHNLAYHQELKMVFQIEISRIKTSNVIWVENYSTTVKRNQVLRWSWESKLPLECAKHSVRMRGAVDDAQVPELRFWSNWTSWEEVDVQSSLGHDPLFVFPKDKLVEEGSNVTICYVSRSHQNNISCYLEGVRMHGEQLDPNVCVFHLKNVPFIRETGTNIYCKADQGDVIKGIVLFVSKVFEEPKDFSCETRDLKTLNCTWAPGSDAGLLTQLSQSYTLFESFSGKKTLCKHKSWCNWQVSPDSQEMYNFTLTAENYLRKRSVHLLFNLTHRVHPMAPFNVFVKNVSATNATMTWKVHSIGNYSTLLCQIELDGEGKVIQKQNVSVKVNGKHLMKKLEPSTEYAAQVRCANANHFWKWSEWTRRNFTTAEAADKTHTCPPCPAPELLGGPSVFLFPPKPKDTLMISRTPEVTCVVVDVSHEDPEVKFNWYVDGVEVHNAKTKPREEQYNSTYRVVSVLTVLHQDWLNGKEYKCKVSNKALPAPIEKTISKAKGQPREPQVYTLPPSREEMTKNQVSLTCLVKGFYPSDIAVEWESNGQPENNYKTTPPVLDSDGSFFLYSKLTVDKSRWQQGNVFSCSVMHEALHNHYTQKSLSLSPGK
With B1, the ELISA ratio stood at 1.06 OD ratio.

In the case of B2, the ELISA ratio is 0.821 OD ratio.

On to B3, for which the ELISA ratio came to 1.11 OD ratio.

For the molecule B4, the ELISA ratio is 1.08 OD ratio.

On to B5, for which the ELISA ratio was 1.09 OD ratio.

As to B6, the ELISA ratio was found to be 0.985 OD ratio.

As to B7, the ELISA ratio was 0.982 OD ratio.

As to B8, the ELISA ratio amounted to 0.74 OD ratio.

As for B9, the ELISA ratio worked out at 1.05 OD ratio.

For the molecule B10, the ELISA ratio worked out at 0 OD ratio.

B11: the ELISA ratio came out at 0.023 OD ratio.

For B12, the ELISA ratio is 0 OD ratio.

For B13, the ELISA ratio is 0.908 OD ratio.

B14: the ELISA ratio is 0.136 OD ratio.

Regarding B15, the ELISA ratio worked out at 0.946 OD ratio.

On to B16, for which the ELISA ratio was 0.055 OD ratio.

With B17, the ELISA ratio was determined as 0.388 OD ratio.

As for B18, the ELISA ratio turned out to be 0.31 OD ratio.

B19: the ELISA ratio worked out at 0.052 OD ratio.

Turning to B20, the ELISA ratio turned out to be 0.256 OD ratio.

In the case of B21, the ELISA ratio turned out to be 0.092 OD ratio.

Turning to B22, the ELISA ratio worked out at 0 OD ratio.

Regarding B23, the ELISA ratio was found to be 0.377 OD ratio.

For the molecule B24, the ELISA ratio was determined as 0 OD ratio.

Consider B25, for which the ELISA ratio stood at 0.058 OD ratio.

On to B26, for which the ELISA ratio stood at 1.27 OD ratio.

Turning to B27, the ELISA ratio was 0 OD ratio.

With B28, the ELISA ratio was 0.32 OD ratio.

As usually defined, the Kd is the concentration at which binding is half-saturated. A lower Kd goes with tighter binding. For orientation: koff means a measure of how fast the partners let go of each other. Read a low koff as slow dissociation. The kon is the rate constant with which the complex forms. Low values mean slower complex formation, high ones faster complex formation.
